Reference: US20260008840A1 (ALZPATH, published 2026)

Key:
[1] = molecular target: T1, Tau in brain lysate samples from AD patients (human, UniProt P10636-8 2-441, limits assumed); assay: Western blot of brain lysates
T1 construct: A mixture of isoforms; The phosphorylation state was not defined by the experiment; also called different length isoforms of Tau in AD samples
Experimental: (§1) In FIG. 26, Western blots were used to assess binding of various antibodies to brain lysate samples from AD patients and Control subjects. Protein ladders were run in lanes 1 and 10. Phosphatase treated pTau loaded in an amount of 0.05 ug was run in lane 2. Full-length Tau (Tau411) loaded in an amount of 0.05 ug was run in lane 3. Lanes 4-6 contain samples from different Control subjects with a dilution factor of 5. Lanes 7-9 contain samples from different AD subjects with a dilution factor of 5.

[2] = molecular target: T2, Tau in brain lysate samples from Control subjects (human, UniProt P10636-8 2-441, limits assumed); assay: Western blot of brain lysates
T2 construct: A mixture of isoforms; also called different length isoforms of Tau in control samples
Experimental: as §1

Bio-pt655 (phospho T217) = assay: indirect ELISA: biotinylated peptide on streptavidin plate, antibody titrated, peroxidase tracer antibody, TMB, OD450-630nm; panel 'Bio-pt655 (phospho T217)'
Experimental: Tau antibodies described herein that detect phosphorylated Tau were tested in ELISA assays. […] Briefly, streptavidin beads were bound to a plate and biotinylated peptide was added to the plates under conditions allowing for biotin-streptavidin binding. […] This was the target peptide. After binding of the synthetic peptide to the plate by the formation of the biotin-streptavidin complex, Tau antibodies were added to the plates under conditions allowing for antibody-target peptide binding. […] After binding, plates were washed to remove any unbound tracer antibody and plates next had TMB ELISA Peroxidase chromogenic substrate (3, 3′, 5, 5′-Tetramethylbenzidine) added to visualize antibody reactivity in indirect ELISA experiments. Antibody sample binding was quantitated using an ELISA microplate reader.
PT3 corresponds to a mouse anti-phospho (T212/T217) Tau selective antibody (Janssen Biotech Inc.). 30H10L2 corresponds to Antibody 2 described herein. 71H1L2 corresponds to Antibody 6 described herein. 62H10L7 corresponds to Antibody 5 described herein.

Adx-pt655 = assay: capture ELISA: 30H10L2 bound to the plate, biotinylated peptide titrated (the concentration is that of Adx-pt655), streptavidin-peroxidase, TMB, OD450-630nm
Source text: In FIG. 25, a diagram of an assay using Antibody 2 to detect capture of particular Tau peptides is depicted. In this assay, Antibody 2 is bound to a plate and sample wells from the plate are subjected to various biotinylated peptides under conditions conducive to forming specific antibody-ligand interactions. Samples are then washes to remove excess unbound biotinylated peptide. Streptavidin beads conjugated to peroxidase and then added to the samples to allow biotin-streptavidin complexes to form on peptide bound antibodies. TMBred substrate is then added and samples are measured for colorimetric development using an ELISA plate reader. […] Antibody 5 and Antibody 6 tested by indirect ELISA under the same conditions using the same Tau peptides yielded no specific dose-dependent reactivity toward the Tau peptides tested.

T2 sequence (P10636 other isoform, or with tags, fused parts or gaps limits assumed): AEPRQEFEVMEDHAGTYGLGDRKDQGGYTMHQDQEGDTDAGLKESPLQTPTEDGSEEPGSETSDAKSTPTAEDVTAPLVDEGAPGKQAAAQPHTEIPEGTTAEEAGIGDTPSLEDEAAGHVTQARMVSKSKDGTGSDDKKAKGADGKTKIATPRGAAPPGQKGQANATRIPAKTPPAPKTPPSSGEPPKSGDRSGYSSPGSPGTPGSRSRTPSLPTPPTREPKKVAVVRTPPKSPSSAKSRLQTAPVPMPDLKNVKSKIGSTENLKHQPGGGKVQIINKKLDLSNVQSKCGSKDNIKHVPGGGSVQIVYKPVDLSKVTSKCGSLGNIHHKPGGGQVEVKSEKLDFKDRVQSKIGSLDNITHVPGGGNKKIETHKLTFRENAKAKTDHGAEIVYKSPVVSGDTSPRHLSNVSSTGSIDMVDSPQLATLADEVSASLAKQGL
T1 sequence (P10636 other isoform, or with tags, fused parts or gaps limits assumed): as above

| binding result [1] | binding result [2] | EC50 (read off the curve) (Bio-pt655 (phospho T217)) [µg/mL] | EC50 (read off the curve) (Adx-pt655) [µg/mL] | Binder |
| --- | --- | --- | --- | --- |
| no binding (tested: DF 5) | no binding (tested: DF 5) |  |  | Antibody 6 (antibody, V domains shown, also called 71H1L2) VH: QSLEESGGRLVTPGTPLTLTCTVSGIDLSTHAMTWVRQAPGKGLEWIGVINPSGSAYYATWVNGRFTISKTSTTVDLKITSPTTGDTAKYFCARDYITAGDYYMDAFDPWGPGTLVTVSS VL: DIVMTQTPASVSAAVGGTVTIKCQASQSISNQLSWYQQKSGQPPKLLIYRASTLASGVPSRFKGSGSGTEFTLTISDLECADAATYYCQQGYNRDNVDNLFGGGTEVVVKG |
|  |  | ~0.2 | ~0.4 | Antibody 2 (antibody, V domains shown, also called 30H10L2) VH: QSVEESGGRLVTPGTPLTLTCTVSGFSLSSYAMIWVRQAPGKGLEWIGFISRSGITYYASWAKGRFTISKTSTTVDLKMTSLTTEDTATYFCAREFGAVGSDYYRDAFNLWGPGTLVTVSS VL: DIVMTQTPASVEAAVGGTVTINCQASESINSWLSWYQQKPGQPPNLLIYRASTLASGVPSRFSGGGSGTEYTLTISDLECADAVTYYCQSYYEEDGIGYAFGGGTEVVVEG |
| no binding (tested: DF 5) | no binding (tested: DF 5) |  |  | Antibody 5 (antibody, V domains shown, also called 62H10L7) VH: QSVEESGGGLVTPGGTLTLTCTVSGFSLSNYAMSWVRQAPGKGLEWIGFISRSGITYYASWAKGRFTISKTSTTVDLKITSPTTEDTAAYFCAREFGAVGSDYYRDALRLWGPGTLVTVSS VL: DIVMTQTPSSVSAAVGGTVTIKCQASQSIGSNLAWYQQKPGQPPKLLIYGASTLESGVPSRFKGSGSGTEYTLTISDLECADAATYYCQSYYEGSDIGYAFGGGTEVVVEG |
